Assay results as given in patent US20170233480A1 (DEVELOPMENT CENTER FOR BIOTECHNOLOGY, published 2017).

T1: human VEGFR-3 (human, UniProt P35916 25-775, limits assumed)
T1 construct: also called flt-4
T1 sequence (looked up): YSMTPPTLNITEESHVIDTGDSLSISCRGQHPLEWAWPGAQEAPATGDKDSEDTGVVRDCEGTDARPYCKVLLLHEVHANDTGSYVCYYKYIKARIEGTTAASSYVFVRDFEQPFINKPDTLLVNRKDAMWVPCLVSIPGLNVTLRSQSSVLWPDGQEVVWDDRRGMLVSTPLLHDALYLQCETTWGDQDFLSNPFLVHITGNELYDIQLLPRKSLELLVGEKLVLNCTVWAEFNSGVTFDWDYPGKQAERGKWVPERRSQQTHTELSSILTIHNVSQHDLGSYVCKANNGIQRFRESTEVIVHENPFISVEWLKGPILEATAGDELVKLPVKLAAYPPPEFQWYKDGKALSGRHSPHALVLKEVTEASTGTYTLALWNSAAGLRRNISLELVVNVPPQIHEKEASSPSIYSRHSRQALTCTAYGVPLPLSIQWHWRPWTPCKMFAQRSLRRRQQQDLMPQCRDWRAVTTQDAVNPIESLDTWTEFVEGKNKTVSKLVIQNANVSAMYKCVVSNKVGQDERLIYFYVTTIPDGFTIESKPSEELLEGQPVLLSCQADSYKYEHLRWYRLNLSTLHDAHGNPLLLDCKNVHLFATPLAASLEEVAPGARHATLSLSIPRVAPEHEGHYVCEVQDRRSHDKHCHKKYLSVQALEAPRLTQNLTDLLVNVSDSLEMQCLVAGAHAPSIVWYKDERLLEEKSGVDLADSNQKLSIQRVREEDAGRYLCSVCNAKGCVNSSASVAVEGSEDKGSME


Key:
[1] = biological target: T2, human VEGFR-2 (domains 1 to 7) (human, UniProt P35968 20-764); assay: kinetic analysis with Rmax in RU, VEGFR-2 (domains 1 to 7) as analyte; method not named
T2 construct: The immunogen was VEGFR2-Fc-His and panning used VEGFR2-His; also called R2 D1-7; KDR

human VEGFR-3 = biological target: T1, human VEGFR-3; assay: ELISA, plate coated with hVEGFR3 (0.1 µg/mL), antibody titration, OD450-650
Method: (§1) An ELSA plate was coated with 100 μL per well of human VEGFR-2, mouse VEGFR2, human VEGFR1 or human VEGFR3 overnight at 4° C., and then rinsed 3 times with PBS and blocked with 300 μL per well of 5% MPBS for 2 hr at 37° C. The wells were rinsed 3 times with PBS, and 100 μL of anti-VEGFR2 antibody, 2 fold serial dilutions, was added and incubated for 90 min at 37° C. The test solution was discarded and washed 3 times with PBS. Appropriate dilution of HRP-anti-Human IgG antibody in 5% MPBS (1:10000) was added and incubated for 60 min at 37° C., and the wells were washed 3 times with PBS. The wells were developed with 100 μL of substrate solution TMB and the reactions were terminated by adding 50 μL of 1 M sulfuric acid. The color turned yellow and the OD at 650 nm and at 450 nm was assayed.

mouse VEGFR-2 = mouse VEGFR-2 (mouse, UniProt P35918 20-762); assay: ELISA, plate coated with mouse VEGFR-2, HRP-anti-human IgG, OD450-650; bar chart of two runs (1st, 2nd); antibody concentration not given
Method: as §1

human VEGFR-1 = biological target: T3, human VEGFR-1 (human, UniProt P17948 27-758, limits assumed); assay: ELISA, plate coated with hVEGFR1 (0.1 µg/mL), antibody titration, OD450-650
T3 construct: also called flt-1
Method: as §1

[2] = biological target: T2, human VEGFR-2 (domains 1 to 7); assay: ELISA on VEGFR-2 D1-7 and point mutants mut.1 to mut.10, antibody titration 6.86E-05 to 0.15 ug/ml, OD450
[3] = biological target: T2, human VEGFR-2 (domains 1 to 7); assay: ELISA and BIAcore; no numbers given

T2 sequence (P35968 20-764 Q472H limits assumed): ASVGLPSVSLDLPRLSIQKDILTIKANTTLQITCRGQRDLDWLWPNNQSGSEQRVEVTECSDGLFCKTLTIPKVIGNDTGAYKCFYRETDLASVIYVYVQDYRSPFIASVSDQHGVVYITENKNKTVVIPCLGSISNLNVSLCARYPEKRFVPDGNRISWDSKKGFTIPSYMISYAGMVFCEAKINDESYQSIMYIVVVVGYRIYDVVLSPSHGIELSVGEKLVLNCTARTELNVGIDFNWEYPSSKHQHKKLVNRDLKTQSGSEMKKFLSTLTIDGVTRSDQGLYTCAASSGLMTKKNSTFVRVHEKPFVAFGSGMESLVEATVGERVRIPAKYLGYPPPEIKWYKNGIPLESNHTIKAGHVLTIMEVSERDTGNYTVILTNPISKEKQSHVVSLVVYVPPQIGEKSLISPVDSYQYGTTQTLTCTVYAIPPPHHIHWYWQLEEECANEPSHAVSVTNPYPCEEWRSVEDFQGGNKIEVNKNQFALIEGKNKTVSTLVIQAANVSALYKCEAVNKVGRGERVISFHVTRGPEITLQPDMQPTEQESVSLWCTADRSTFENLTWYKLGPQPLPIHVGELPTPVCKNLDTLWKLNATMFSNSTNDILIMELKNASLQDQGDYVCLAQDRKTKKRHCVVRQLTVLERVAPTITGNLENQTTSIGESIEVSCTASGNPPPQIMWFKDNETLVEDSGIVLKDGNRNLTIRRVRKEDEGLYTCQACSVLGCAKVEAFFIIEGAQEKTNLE
Sequence of mouse VEGFR-2 (P35918 20-762 limits assumed): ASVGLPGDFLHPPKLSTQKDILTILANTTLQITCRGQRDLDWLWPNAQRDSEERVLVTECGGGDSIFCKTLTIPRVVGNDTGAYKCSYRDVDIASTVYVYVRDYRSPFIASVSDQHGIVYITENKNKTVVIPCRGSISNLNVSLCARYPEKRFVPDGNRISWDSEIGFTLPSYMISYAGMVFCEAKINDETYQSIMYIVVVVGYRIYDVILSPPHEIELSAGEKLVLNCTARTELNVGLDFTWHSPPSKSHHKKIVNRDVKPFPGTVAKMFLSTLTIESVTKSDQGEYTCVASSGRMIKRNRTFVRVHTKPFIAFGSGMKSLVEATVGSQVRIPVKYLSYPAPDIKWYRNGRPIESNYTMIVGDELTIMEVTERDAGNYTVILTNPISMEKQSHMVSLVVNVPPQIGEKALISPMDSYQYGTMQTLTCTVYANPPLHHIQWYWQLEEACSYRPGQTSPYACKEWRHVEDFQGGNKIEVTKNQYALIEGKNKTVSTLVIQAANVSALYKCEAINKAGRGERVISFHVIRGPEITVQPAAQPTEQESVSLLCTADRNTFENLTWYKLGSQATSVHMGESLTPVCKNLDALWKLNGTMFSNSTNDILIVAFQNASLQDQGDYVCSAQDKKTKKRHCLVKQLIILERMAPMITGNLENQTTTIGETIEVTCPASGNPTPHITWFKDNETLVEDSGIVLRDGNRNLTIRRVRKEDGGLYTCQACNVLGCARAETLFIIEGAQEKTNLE
T3 sequence (P17948 27-758 limits assumed): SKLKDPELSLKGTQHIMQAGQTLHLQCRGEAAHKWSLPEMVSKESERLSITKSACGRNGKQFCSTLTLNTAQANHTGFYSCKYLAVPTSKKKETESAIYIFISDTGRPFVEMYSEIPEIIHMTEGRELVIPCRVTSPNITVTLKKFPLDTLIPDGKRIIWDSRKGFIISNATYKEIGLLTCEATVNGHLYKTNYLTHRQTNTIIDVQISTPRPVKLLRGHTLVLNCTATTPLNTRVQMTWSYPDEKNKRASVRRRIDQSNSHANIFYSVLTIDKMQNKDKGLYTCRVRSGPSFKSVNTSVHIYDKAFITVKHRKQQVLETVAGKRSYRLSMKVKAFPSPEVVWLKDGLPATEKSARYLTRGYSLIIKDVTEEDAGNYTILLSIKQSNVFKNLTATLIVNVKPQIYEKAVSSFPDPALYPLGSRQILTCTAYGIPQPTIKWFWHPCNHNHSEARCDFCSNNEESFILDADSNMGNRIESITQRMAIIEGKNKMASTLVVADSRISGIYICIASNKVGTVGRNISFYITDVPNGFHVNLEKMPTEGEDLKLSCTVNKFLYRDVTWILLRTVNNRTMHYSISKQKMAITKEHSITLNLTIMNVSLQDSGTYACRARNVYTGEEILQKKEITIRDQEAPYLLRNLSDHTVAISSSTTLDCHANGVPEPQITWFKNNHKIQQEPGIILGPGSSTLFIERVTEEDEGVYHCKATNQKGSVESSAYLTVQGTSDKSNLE

Kd [1]	binding result (human VEGFR-3)	binding result (mouse VEGFR-2)	EC50 (read off the curve) [2]	binding result [3]	Binder	binding result (human VEGFR-1)
0.673 nM	no binding (tested: about 1.3e-7 M)	binds	~5 ng/mL	–	322A6 (antibody, V domains shown, Expressed as a full-length antibody in FreeStyle 293 cells from mouse-derived VH and VL; It was detected with anti-human IgG and anti-human kappa; also called 322A6 (45); c45) VH: EVQLQQSGPQLVRPGASAKISCKASGYAFTTYWMHWVKQRPGQGLEWIGMIDFSDSETKLNQRFKGKATLTVDKSSSTAYMQLSSPTSEDSAVYYCARDVRGNFDVWGAGTTVTVSS VL: DIVLTQSPASLAVSLGQRATISCRASKSVSTSGYSYMHWYQQKPGQPPKLLIYLASNLESGVPARFSGSGSGTDFTLNIHPVEEEDAATYYCQHSRELPWTFGGGTKLEIKR	no binding (tested: 20 µg/mL (about 1.3e-7 M))
4.6 nM	–	no binding	–	–	12A6 (antibody, V domains shown, Expressed as a full-length antibody in FreeStyle 293 cells and detected with anti-human IgG) VH: QVQLQQSGPELVKPGASVKVSCKASGYSFTDYSMYWVKQSHGKSLEWIGYIDPYNDDTSYKQKFKGKATLTVDKSSSTAFMHLNSLTSEDSAVYYCAKGYADAMDYWGQGTSVTVSS VL: DIQMIQSPSSLSASLGDTITITCHASQNINVWLSWYQQKPGNIPKLLIYKASNLHTGVPSRFSGSGSGTGFTLTISSLQPEDIATYYCQQGQSYPLTFGAGTKLELKR	–
–	–	–	–	binds	Hu322B1HdH (antibody, V domains shown, Humanized 322A6; The expression vector encodes the human kappa light-chain and human IgG1 C regions; also called 322A6(HuB1-Hd); combination clone of heavy chain (HuB1) and light chain (Hd) with 7 amino acid back mutation (7+0)) VH: QVQLVQSGAEVKKPGASVKVSCKASGYAFTTYWMHWVRQAPGQGLEWIGMIDFSDSETKLNQRFKGKATLTVDKSTSTAYMELSSLRSEDTAVYYCARDVRGNFDVWGQGTLVTVSS VL: DIQMTQSPSSLSASVGDRVTITCRASKSVSTSGYSYMHWYQQKPGKAPKLLIYLASNLESGVPSRFSGSGSGTDFTLTISSLQPEDFATYYCQHSRELPWTFGQGTKVEIKR	–
